B1: 368_D07 (antibody, V domains shown)
VH: EVQLLESGGGLVQPGGSLRLSCAASGFTFDSYGMHWVRQAPGKGLEWVASINYNGGYTGYADSVKGRFTISRDNSKNTLYLQMNSLRAEDTAVYYCARAATWHDTHLDYWGQGTLVTVSS
VL: not shown
notes: Group II
B2: 369_B07 (antibody, V domains shown)
VH: B1 VH with S50N, T58K, G59S
VL: DIQMTQSPSSLSASVGDRVTITCRASQSIVSYVNWYQQKPGKAPKLVIYAATSLASGVPSRFSGSGSGTDFTLTISSLQPEDFATYYCQQSYDLPLTFGGGTKVEIK
notes: Group II
B3: 368_F10 (antibody, V domains shown)
VH: B1 VH with D30S, H35N, S50G, G55S, G59S, T101N
VL: B2 VL with V47L, L54R, L94T
notes: Group I
B4: 368_H03 (antibody, V domains shown)
VH: B1 VH with S31D, G33S
VL: B2 VL with V30L, A51V, L54R, A55H, D93S, L94N
notes: Group II
B5: 369_C11 (antibody, V domains shown)
VH: B1 VH with D30S, S31D, S50G
VL: B2 VL with V30L, V33L, L54R, L94T
notes: Group II
B6: 370_B07 (antibody, V domains shown)
VH: B1 VH with D30S, S50N, G55S, T58K, G59S
VL: B2 VL with V30L, S31T, V47L, L54R, A55H, D93S, L94S
notes: Group II
B7: 369_B03 (antibody, V domains shown)
VH: B1 VH with D30S, S50G, G59S, T101N, H106A
VL: B2 VL with V30L, S31T, D93E
notes: Group I
B8: 368_E05 (antibody, V domains shown)
VH: B1 VH with G33S, A49S, T58K, G59S
VL: B2 VL with V30L, V33L, L54R, D93S, L94S
notes: Group II
B9: 369_H03 (antibody, V domains shown)
VH: B1 VH with D30S, G33S, G55S, T58K, G59S, T101N, H106A
VL: B2 VL with V33L, V47L, A51T, L54R, L94T
notes: Group I
B10: 369_G10 (antibody, V domains shown)
VH: B1 VH with D30S, G59S, T101N, H106A
VL: B2 VL with V30L, V33L, L54R, L94S
notes: Group I
B11: 368_D09 (antibody, V domains shown)
VH: B1 VH with S50G, G55S, T58K, G59S, T101N
VL: B2 VL with V47L, L94N
notes: Group I
B12: 369_C09 (antibody, V domains shown)
VH: B1 VH with D30S, A49S
VL: B2 VL with V33L, L54R, A55H
notes: Group II
B13: 368_F02 (antibody, V domains shown)
VH: B1 VH with D30S, H35N, G55S, G59S, T101N
VL: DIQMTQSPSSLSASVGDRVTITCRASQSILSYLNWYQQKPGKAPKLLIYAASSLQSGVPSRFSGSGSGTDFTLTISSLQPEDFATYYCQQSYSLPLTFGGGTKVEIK
notes: Group I
B14: 370_B06 (antibody, V domains shown)
VH: B1 VH with D30S, S50G, G59S
VL: B2 VL with L54R, D93E, L94T
notes: Group II
B15: 370_D06 (antibody, V domains shown)
VH: B1 VH with D30S, H35N, G59S, T101N
VL: B2 VL with V30I, V33L, D93S, L94S
notes: Group I
B16: 368_G11 (antibody, V domains shown)
VH: B1 VH with A49S, S50G, G55S, T58K, G59S, H106A
VL: B2 VL with V30L, S31T, V33L, V47L, L54R, Y92D, D93N, L94T
notes: Group II
B17: 368_E08 (antibody, V domains shown)
VH: B1 VH with S50N, G55S
VL: B2 VL with V30L, A55H, D93E, L94T
notes: Group II
B18: 370_B01 (antibody, V domains shown)
VH: B1 VH with S31D, A49S, S50G, T58K, G59S, T101N, H106A
VL: B2 VL with V30L, V47L, A50V, T52S, L54R, D93S
notes: Group I
B19: 369_C06 (antibody, V domains shown)
VH: B1 VH with D30S, G33S, A49S, T58K, G59S
VL: B2 VL with V30L, V47L, L54R, L94S
notes: Group II
B20: 369_A12 (antibody, V domains shown)
VH: B1 VH with D30S, G33S, G55S
VL: B2 VL with V30L, S31T, V33L, V47L, L54R, A55H
notes: Group II
B21: 369_A04 (antibody, V domains shown)
VH: B1 VH with T58K, G59S
VL: B2 VL
notes: Group II
B22: 369_E03 (antibody, V domains shown)
VH: B1 VH with D30S, S50G, G59S
VL: B2 VL with V30L, V47L, D93E, L94N
notes: Group II
B23: 369_B08 (antibody, V domains shown)
VH: B1 VH with A49S, G59S
VL: B2 VL with V30L, V47L, L54R, D93E, L94S
notes: Group II

Residue numbers refer to the chain shown, from its start.
Further: test concentration or dose not given here.

Sequence of mouse ACVR2A (P27038 20-135 limits assumed): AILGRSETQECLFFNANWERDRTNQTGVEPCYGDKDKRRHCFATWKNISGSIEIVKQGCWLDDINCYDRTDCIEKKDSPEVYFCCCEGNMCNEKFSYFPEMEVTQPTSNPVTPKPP

In one assay the target is T1, biotinylated goat anti-human kappa light chain.
T1 construct: positive control of the ELISA
Kind of assay: ELISA, positive control. The essentials:
(§1)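 Binding signal was read by ELISA after ACVR2A-specific monoclonal antibodies were tested against human ACVR2A and mouse ACVR2A, with human Fc as the negative control.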
On the technique in general: In an ELISA, binding on a coated surface is turned into a signal by an enzyme label.
For B1, the optical density was 3.26 OD.
On the same count and under the same terms, as for B2, the figure is 3.39 OD.
On the same count and under the same terms, as for B3, the figure is 3.52 OD.
Consider B4, for which the optical density was found to be 3.56 OD.
Same read-out and setting: the result for B5 reads 3.48 OD; that for B6, 3.48 OD; that for B7, 3.52 OD.
Molecule B8 showed an optical density of 3.37 OD.
Take B9: the optical density worked out at 3.47 OD.
In the case of B10, the optical density turned out to be 3.49 OD.
Take B11: the optical density came out at 3.46 OD.
The same measure, in the same setting: the result for B12 reads 3.41 OD; that for B13, 3.65 OD; that for B14, 3.37 OD.
Take B15: the optical density was determined as 3.48 OD.
Same read-out and setting: as for B16, the figure is 3.5 OD; as for B17, 3.5 OD; as for B18, 3.75 OD.
Take B19: the optical density was determined as 3.17 OD.
B20 came in with an optical density of 3.72 OD.
B21 showed an optical density of 3.5 OD.
On the same count and under the same terms, as for B22, the figure is 3.37 OD; as for B23, 3.29 OD.

Another assay deals with mouse ACVR2A (mouse, UniProt P27038 20-135, limits assumed). In words: ELISA. The method in brief:
as §1
With B1, the optical density stood at 2.46 OD.
Still for that read-out and setting: the result for B2 reads 2.9 OD; that for B3, 2.6 OD.
On the same count and under the same terms, the result for B4 reads 2.73 OD; that for B5, 2.91 OD; that for B6, 2.2 OD.
On the same count and under the same terms, the result for B7 reads 3.31 OD; that for B8, 2.07 OD; that for B9, 3.08 OD.
Turning to B10, the optical density amounted to 3.29 OD.
The same measure, in the same setting: the result for B11 reads 2.11 OD; that for B12, 3.05 OD; that for B13, 2.27 OD.
Molecule B14 showed an optical density of 3.09 OD.
In turn, B15 showed an optical density of 2.66 OD.
On the same count and under the same terms, as for B16, the figure is 2.37 OD; as for B17, 2.67 OD; as for B18, 3.47 OD.
The same measure, in the same setting: the result for B19 reads 3.06 OD; that for B20, 3.24 OD; that for B21, 2.86 OD.
B22 displayed an optical density of 3.36 OD.
Same read-out and setting: as for B23, the figure is 2.88 OD.

In another assay the target is T2, human ACVR2A (human, UniProt P27037 20-135, limits assumed).
T2 construct: also called activin receptor, type II A
T2 sequence (P27037 20-135 limits assumed): as the sequence (P27038 20-135 limits assumed) above, with R20K, I73V counted along it
In words: ELISA. The essentials: as §1
Turning to B1, the optical density stood at 2.2 OD.
The molecule B2 yielded an optical density of 2.63 OD.
Regarding B3, the optical density was determined as 2.25 OD.
On the same count and under the same terms, the result for B4 reads 2.44 OD; that for B5, 2.8 OD; that for B6, 1.91 OD.
On the same count and under the same terms, the result for B7 reads 3.32 OD; that for B8, 1.87 OD.
In turn, B9 returned an optical density of 2.83 OD.
Take B10: the optical density was 3.37 OD.
Molecule B11 registered an optical density of 2.19 OD.
The same measure, in the same setting: the result for B12 reads 2.88 OD; that for B13, 2.18 OD; that for B14, 2.88 OD.
On the same count and under the same terms, the result for B15 reads 2.26 OD; that for B16, 2.1 OD; that for B17, 2.27 OD.
The same measure, in the same setting: as for B18, the figure is 3.38 OD.
B19: the optical density was 2.75 OD.
Molecule B20 showed an optical density of 3.17 OD.
On the same count and under the same terms, as for B21, the figure is 2.76 OD.
Still for that read-out and setting: as for B22, the figure is 3.15 OD; as for B23, 2.75 OD.

The record behind these values is US20210380703A1 (RIGEL PHARMACEUTICALS, published 2021).
